Data reported in patent publication US7795386B2, “Peptides comprising an isoDGR motif” (Molmed SpA, priority 2004, dated 2010).

Experiments:
αvβ3 integrin [1] = molecular target: T1, αvβ3 integrin (Homo sapiens, UniProt P05106+P06756); assay: competitive binding of biotinylated NGR-TNF to αvβ3 coated plates; details: FN-I5 incubated at 37° C. in DMEM
T1 construct: purchased Immunological Sciences
Method: Biotinylated NGR-TNF (4 μg/ml) was mixed with different amount of the indicated peptides and added to αvβ3 coated plates. Binding was detected as described in Materials and Methods. IC50 was determined by nonlinear regression analysis using the GraphPad Prism software. The kinetics of deamidation of FN-I5 was determined by plotting the inhibitory concentration (IC50) versus the incubation times. Bars represent the confidence intervals for each determined IC50.
(§1) Human αvβ3, αvβ5, α5β1 and α1β1 integrins solutions, 0.5-2 μg/ml in phosphate buffered saline with Ca^2+ and Mg^2+ (DPBS, Cambrex), were added to 96-well polyvinylchloride microtiter plates (50 μl/well) and left to incubate overnight at 4° C. All subsequent steps were carried out at room temperature. […] Bound peroxidase was detected by adding o-phenylendiammine chromogenic substrate.
(§2) Binding of biotinylated peptides (CNGRC (SEQ ID NO: 6)-TNF1-11, CARAC (SEQ ID NO: 36)-TNF1-11 and FN-I5) to purified integrins was studied using streptavidin-peroxidase conjugate complexes. Complexes were prepared by mixing various quantities (0.5-1 μg) of heat-treated biotinylated peptides in DPBS containing 3% BSA with 0.03 units of streptavidinperoxidase (binding capacity: 1 μg of biotin/unit of streptavidin-peroxidase) (final volume 15 μl). […] After washing with DPBS, bound peroxidase was detected by chromogenic reaction as described above. […]

EA.hy926 cells [2] = assay: PIMT treatment of coated products followed by EA.hy926 cell adhesion assay; type: cell-based, human; details: PIMT 16 h at 37° C.
Method: Microtiterplates were coated with heat-treated FN-I5 or NGR-TNF (A), or with natural FN-30 KDa, FN-45 KDa or retronectin (RN) (CNGRC disclosed as SEQ ID NO: 6) (B). The adsorbed proteins were then treated with PIMT enzyme for 16 h at 37° C. After incubation the enzyme solution was removed by washing. EA.hy926 cell adhesion assay was then performed as described in Materials and Methods.
The effect of protei nL-isoAsp/D-As pO-methyltransferase (PIMT) on the pro-adhesive properties of different fragments was investigated as follows: microtiter plates were coated with various products as described above and washed with 0.9% sodium chloride. Each well was then filled with 45 μl of a solution containing 0.02 mM S-adenosyl-L-methionine in 150 mM sodium chloride, 50 mM sodium phosphate buffer, pH 6.8, and 5 μl of PIMT solution (from the Isoquant Isoaspartate Detection kit, Promega) (final volume 50 μl/well) and incubated at 37° C. for 16 h. After incubation the plates were washed with 0.9% sodium chloride and cell adhesion assay was performed as described above.

[3] = system: EA.hy926 cell adhesion to vitronectin; assay: inhibition of EA.hy926 cell adhesion to vitronectin; type: cell-based, human; details: vitronectin 3 μg/ml coated
Method: (A) Inhibition of EA.hy926 cell adhesion to vitronectin by heat-treated FN-I5. Vitronectin (3 μg/ml) was adsorbed to microtiter plate and cell adhesion assay was performed as described in Materials and Methods.
(§3) Untreated and “heat treated” fibronectin fragments, peptides and peptide-TNF conjugates were diluted at the desired concentration with 150 mM sodium chloride, 50 mM sodium phosphate, pH 7.3, and added to 96-well polyvinyl chloride microtiter plates (Falcon, Becton Dickinson). After overnight incubation at 4° C., the plates were washed, seeded with EA.hy926 cell in DMEM containing 0.1% BSA (40000 cells/well) and left to incubate for 2-3 h at 37° C., 5% CO2. Adherent cells were fixed and stained with crystal violet as described (Curnis et al., 2005).

RMA lymphoma = RMA lymphoma tumor growth in mice, heat-treated FN-I5; type: in vivo, mouse; details: 200 μg i.p. daily from day 4; p=0.0003 at day 14
Method: (B) Anti-tumor effects of repeated administration of “heat-treated” FN-I5 to RMA-tumor bearing mice. Animals (5/group) were treated with 200 μg of “heat-treated” FN-I5 (i.p.) at the indicated times (arrows) starting 4 days after tumor implantation. * p=0.0003 at day 14, statistical analysis by two tailed t-test.
Studies on animal models were approved by the Ethical Committee of the San Raffaele H Scientific Institute and performed according to the prescribed guidelines. C57BL/6N mice (Charles River Laboratories, Calco, Italy) weighing 16-18 g were challenged with subcutaneous injection in the left flank of 7×10^4 RMA living cells; 4 days later, the mice were treated daily with 200 μg of heat-treated FN-I5 (100 μl) in 0.9% sodium chloride (i.p.). Tumor growth was monitored by measuring the tumors with calipers as previously described (Gasparri et al., 1999). Animals were sacrificed before the tumors reached 1.0-1.3 cm in diameter. Tumor sizes are shown as mean±SE (5 animals/group).

L-M mouse fibroblasts = assay: standard cytolytic assay with L-M mouse fibroblasts; type: cell-based; details: for Cytolytic Activity: in vitro, L-M murine fibroblasts
From the text: Protein purity and identity were checked by SDS-PAGE, electrospray mass spectrometry and gel-filtration chromatography.
The cDNA coding for DGR-TNF (mouse TNF fused with the C-terminus of CDGRCG (SEQ ID NO: 24)) was obtained by PCR on NGR-TNF plasmid, using the following primers: 5′ […] 3′ (SEQ ID NO: 43) (5′ primer); 5′ […] ′3 (SEQ ID NO: 44) (3′ primer). Both primers were designed to allow the directional cloning into a pET101/D-TOPO plasmid expression kit (Invitrogen). The underlined sequence in 5′ primer contains the sequence necessary to enable the directional cloning and the initial translation codon whereas the 3′ primer contains the stop codon (underlined). The PCR reaction and the cloning procedure were performed as recommended by the manufacturer's instruction. […] The column was washed extensively 100 mM Tris-HCl buffer containing pH 8.0, loaded with DGR-TNF crude extract, diluted in 20 mM Tris-HCl buffer conatining 2 mM EDTA pH 8.0, and desorbed by elution with 7 M urea, 100 mM Tris-HCl, pH 8.0. DGR-TNF was then refolded as described (1). Briefly, the denatured products were dialyzed against 2.33 M urea, 100 mM Tris-HCl, pH 8.0 at 4° C. (140 min), followed by 1.55 M urea, 100 mM Tris-HCl, pH 8.0 (140 min), and 1 M urea, 100 mM Tris-HCl, pH 8 (140 min). Finally the products were dialyzed against 100 mM Tris-HCl, pH 8.0 (48 h). The products were centrifuged at 13000×g (10 min, 4° C.) and concentrated by ultra-filtration through a 10 KDa cut-off filter. All solutions used in the purification and refolding steps were prepared with sterile and endotoxin-free water (S.A.L.F. Laboratorio Farmacologico SpA, Bergamo, Italy). Protein concentration was measured using the BCA Protein Assay Reagent (Pierce, Rockford, Ill.). Protein purity and identity were checked by SDS-PAGE, electrospray mass spectrometry (ESI-MS) and analytical gel-filtration chromatography.

αvβ3 integrin [4] = molecular target: T1, αvβ3 integrin; assay: direct ELISA binding to purified integrin adsorbed on microtiterplates
Method: (A) Binding of heat-treated CNGRC-TNF and TNF to solid phases coated with purified human integrins. Single concentration (5 μg/ml) or various concentrations (inset) of CNGRC-TNF and TNF were used. Binding was detected with anti-TNF antibodies as described in Materials and Methods.
(B) Binding of biotinylated CNGRC-TNF1-11, CARAC-TNF1-11 and FN-I5 (complexed with streptavidin-peroxidase) to purified human integrins. Binding was detected by chromogenic reaction with o-phenylendiammine.
as §1, with “C.” for “C. All subsequent steps were carried out at room temperature.”
as §2

EA.hy926 cells [5] = assay: EA.hy926 cell adhesion assay on coated microtiter plates; type: cell-based, human; details: for EA.hy926 cell adhesion to coated product after heat-treatment: 0.1 M ammonium bicarbonate buffer, pH 8.5, 16 h at 37° C.
Method: Adhesion of EA.hy926 cells to microtiter plates coated with various peptides and proteins before and after accelerated aging. Accelerated aging was performed by peptide incubation in 0.1 M ammonium bicarbonate buffer, pH 8.5, for 16 h at 37° C. (“heat-treatment”). Adhesion to: recombinant FN-I4-5 or control protein (FN-I4-5 (SGS)) (A), synthetic FN-I5 (B), recombinant CNGRC-TNF, CNGRC-TNF1-11 and control CARAC-TNF1-11 peptide (C), CDGRC-TNF (D). Heat-treated (37° C.) and untreated (−20° C.) products were adsorbed onto the plastic surface of microtiter wells (overnight at 4° C.). Microphotograph of wells coated with 30 μg/ml of heat-treated FN-I5 or BSA (B, right) or with 10 μg/ml of recombinant CNGRC-TNF or CDGRC-TNF (C, right), ×200. Cell adhesion assay was carried out as described in Materials and Methods. The TNF fusion constructs, including the TNF1-11 fusion constructs, were made as described Materials and Methods, and include a “G” linker.
as §3

[6] = isoaspartate (isoAsp) quantification, ISOQUANT enzymatic assay; details: for isoAsp (%): pmol of isoAsp/pmol of peptide (%)
From the text: IsoAsp content in untreated and “heat treated” CNGRC (SEQ ID NO: 6)—TNF and peptides was quantified by using the ISOQUANT™ Isoaspartate Detection Kit (Promega).

[7] = bolus, humans (Fraker et al., 1995); cited from earlier work

T1 sequence (P06756 31-889 limits assumed): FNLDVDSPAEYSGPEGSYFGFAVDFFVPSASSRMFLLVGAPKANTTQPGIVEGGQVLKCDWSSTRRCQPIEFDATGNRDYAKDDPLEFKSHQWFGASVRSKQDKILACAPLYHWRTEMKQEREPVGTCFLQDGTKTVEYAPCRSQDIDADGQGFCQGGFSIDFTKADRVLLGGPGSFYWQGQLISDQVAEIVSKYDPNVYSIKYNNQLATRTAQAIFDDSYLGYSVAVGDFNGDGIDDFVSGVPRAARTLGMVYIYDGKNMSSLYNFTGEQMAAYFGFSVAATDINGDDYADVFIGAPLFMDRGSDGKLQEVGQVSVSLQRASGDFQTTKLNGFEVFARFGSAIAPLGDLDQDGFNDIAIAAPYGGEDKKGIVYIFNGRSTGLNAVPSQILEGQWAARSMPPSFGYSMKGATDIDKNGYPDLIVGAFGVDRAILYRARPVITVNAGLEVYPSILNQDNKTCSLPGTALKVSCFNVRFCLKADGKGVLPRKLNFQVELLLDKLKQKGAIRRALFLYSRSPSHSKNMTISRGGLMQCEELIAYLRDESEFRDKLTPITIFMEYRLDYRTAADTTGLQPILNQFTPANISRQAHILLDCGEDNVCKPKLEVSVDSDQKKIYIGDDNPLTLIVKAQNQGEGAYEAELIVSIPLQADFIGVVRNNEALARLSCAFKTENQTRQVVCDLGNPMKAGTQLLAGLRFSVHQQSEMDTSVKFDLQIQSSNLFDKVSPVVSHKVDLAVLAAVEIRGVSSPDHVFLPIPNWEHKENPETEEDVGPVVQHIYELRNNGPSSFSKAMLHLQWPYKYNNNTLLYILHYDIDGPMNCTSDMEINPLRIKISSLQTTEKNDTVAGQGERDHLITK
T1 sequence (P06756 891-1048 partner limits assumed): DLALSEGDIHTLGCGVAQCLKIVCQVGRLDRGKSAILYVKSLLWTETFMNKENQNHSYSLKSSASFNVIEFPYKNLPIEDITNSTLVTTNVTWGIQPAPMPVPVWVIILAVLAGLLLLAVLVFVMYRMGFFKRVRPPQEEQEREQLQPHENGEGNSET
T1 sequence (P05106 27-788): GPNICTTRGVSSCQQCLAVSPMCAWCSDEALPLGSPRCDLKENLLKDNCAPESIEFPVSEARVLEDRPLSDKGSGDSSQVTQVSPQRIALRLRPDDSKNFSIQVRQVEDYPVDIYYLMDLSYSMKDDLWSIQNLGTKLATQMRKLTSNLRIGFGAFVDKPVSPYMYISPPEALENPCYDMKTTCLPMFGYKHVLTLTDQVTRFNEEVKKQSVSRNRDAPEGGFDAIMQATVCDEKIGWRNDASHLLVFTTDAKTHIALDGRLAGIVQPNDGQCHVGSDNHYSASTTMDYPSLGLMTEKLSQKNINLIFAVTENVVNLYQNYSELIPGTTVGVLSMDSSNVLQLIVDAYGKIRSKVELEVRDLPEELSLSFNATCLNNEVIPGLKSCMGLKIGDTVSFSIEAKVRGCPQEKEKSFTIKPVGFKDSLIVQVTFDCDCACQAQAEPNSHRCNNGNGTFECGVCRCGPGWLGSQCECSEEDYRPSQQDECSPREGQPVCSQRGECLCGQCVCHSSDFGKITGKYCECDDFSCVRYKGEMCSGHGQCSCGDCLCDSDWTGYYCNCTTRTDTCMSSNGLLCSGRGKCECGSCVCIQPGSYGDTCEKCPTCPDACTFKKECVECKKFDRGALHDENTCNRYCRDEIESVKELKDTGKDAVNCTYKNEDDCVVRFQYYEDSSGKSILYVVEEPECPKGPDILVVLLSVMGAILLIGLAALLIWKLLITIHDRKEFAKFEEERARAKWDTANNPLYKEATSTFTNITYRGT

FN-I5: synthetic peptide, 5th type I repeat of human fibronectin, residues 230-274, additional N-terminal acetyl-glycine, Glu250 in place of Asp250
incubation time to maximal competitive binding activity (αvβ3 integrin [1]): 24 to 48 h

heat-treated FN-I5: FN-I5 incubated in 0.1 M ammonium bicarbonate buffer, pH 8.5, 16 h at 37° C. (deamidated)
effect of PIMT on pro-adhesive activity (EA.hy926 cells [2]): almost completely inhibited
inhibition of adhesion of EA.hy926 cells to vitronectin [3]: could inhibit
tumor growth in RMA lymphoma bearing mice (RMA lymphoma): significantly inhibited tumor growth

TNF: murine TNF by recombinant DNA technology; in b159 bolus TNF in humans (literature) [reference compound]
Cytolytic Activity (L-M mouse fibroblasts): 8 × 10^8 U/mg
binding to αvβ3 (αvβ3 integrin [4]; heat-treated products, in words): No binding
EA.hy926 cell adhesion to coated product after heat-treatment (EA.hy926 cells [5]): No adhesion
EA.hy926 cell adhesion to coated product (EA.hy926 cells [5]; before heat treatment): No adhesion
isoAsp (%) [6]: 2.6%
maximum tolerated dose [7]: 218-410 μg/m^2

B1: Cys-Asn-Gly-Arg-Cys-Gly-(SEQ ID NO: 7)TNF (protein)
chain: CNGRCGLRSSSQNSSDKPVAHVVANHQVEEQLEWLSQRANALLANGMDLKDNQLVVPADGLYLVYSQVLFKGQGCPDYVLLTHTVSRFAISYQEKVNLLSAVKSPCPKDTPEGAELKPWYEPIYLGGVFQLEKGDQLSAEVNLPKYLDFAESGQVYFGVIAL
notes: murine TNF fused with the C-terminus of CNGRCG, recombinant
cytolytic activity after heat treatment (L-M mouse fibroblasts; 0.1 M ammonium bicarbonate buffer, pH 8.5, 37° C., 4 h of treatment): no loss of cytolytic activity
Cytolytic Activity (L-M mouse fibroblasts): 2.96 (±0.56)×10^8 U/mg
Cytolytic Activity (L-M mouse fibroblasts; listed as NGR-TNF): 2.9 × 10^8 U/mg
binding to αvβ3 before heat treatment (αvβ3 integrin [4]; untreated, data not shown): to a lower extent
EA.hy926 cell adhesion to coated product after heat-treatment (EA.hy926 cells [5]): increased cell adhesion
isoAsp content after heat treatment ([6]; 0.1 M ammonium bicarbonate pH 8.5, 16 h, 37° C.): > 0.5 mol isoAsp/mol CNGRC-TNF subunit
isoAsp (%) [6]: 29.8%

B2: heat-treated CNGRC-TNF: CNGRC-TNF incubated in 0.1 M ammonium bicarbonate buffer, pH 8.5, 16 h at 37° C. (protein)
chain: B1 chain
effect of PIMT on pro-adhesive activity (EA.hy926 cells [2]): almost completely inhibited
